From patent publication US20080014583 come the findings set out here.

One data set deals with T1, Flag-tagged TRB3.
T1 sequence: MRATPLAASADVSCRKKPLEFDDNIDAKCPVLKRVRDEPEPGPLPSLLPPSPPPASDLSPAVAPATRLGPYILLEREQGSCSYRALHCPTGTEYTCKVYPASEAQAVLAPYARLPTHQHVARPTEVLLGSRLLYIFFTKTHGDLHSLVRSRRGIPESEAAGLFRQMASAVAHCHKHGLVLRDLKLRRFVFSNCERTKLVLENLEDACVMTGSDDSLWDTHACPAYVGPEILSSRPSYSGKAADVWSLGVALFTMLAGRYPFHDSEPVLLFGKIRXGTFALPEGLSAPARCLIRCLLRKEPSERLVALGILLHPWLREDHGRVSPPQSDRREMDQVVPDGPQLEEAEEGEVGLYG

Data set [1] concerns T2, COP1-interaction-defective VPmt mutant Flag-TRB3.
T2 sequence: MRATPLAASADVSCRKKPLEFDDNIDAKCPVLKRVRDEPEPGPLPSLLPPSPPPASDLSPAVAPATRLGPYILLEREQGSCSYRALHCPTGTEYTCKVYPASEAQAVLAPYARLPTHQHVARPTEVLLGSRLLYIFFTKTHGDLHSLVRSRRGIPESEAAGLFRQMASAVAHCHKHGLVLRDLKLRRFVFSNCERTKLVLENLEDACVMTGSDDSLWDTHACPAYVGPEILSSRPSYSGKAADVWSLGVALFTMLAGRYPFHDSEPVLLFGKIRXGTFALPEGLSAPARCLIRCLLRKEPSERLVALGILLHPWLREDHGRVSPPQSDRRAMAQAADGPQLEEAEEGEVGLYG

For “HA-tagged COP1 (Constitutive Photomorphogenic Protein 1)”, in the data set with Flag-tagged TRB3, the “degradation of TRB3 protein after removal of MG132” value is recorded as “COP1+DET1 promoted degradation of wild-type but not VPmt TRB3 protein” and the “ubiquitination of TRB3, MS analysis” value is reported as “COP1 promotes ubiquitination of wild-type but not COP1-interaction defective (VPmt) TRB3 at 3 major sites”. For the same substance, in data set [1], the “degradation of TRB3 protein after removal of MG132” value is listed as “COP1+DET1 promoted degradation of wild-type but not VPmt TRB3 protein” and the “ubiquitination of TRB3, MS analysis” value is “COP1 promotes ubiquitination of wild-type but not COP1-interaction defective (VPmt) TRB3 at 3 major sites”.
